We go through two substances from paper doi:10.1101/368720.

Broadly, the Kd is the equilibrium constant for the complex coming apart. Read a low Kd as a tighter complex.

Experiment [1] addresses rabbit skeletal muscle G-actin (rabbit) (UniProt P68135). Nature of the experiment: ITC.
In experiment [2] the target is rabbit skeletal muscle filamentous actin (rabbit) (UniProt P68135). Nature of the experiment: co-sedimentation.

With “occidiofungin (native, unmodified) (peptide)”, in experiment [1], the dissociation constant Kd stood at 1000 nM and the stoichiometry N (occidiofungin per G-actin) came to 1. Besides, in experiment [2], the Kd was 1000 nM and the stoichiometry N (occidiofungin per actin monomer) is 24.
Consider phalloidin (peptide), for which, in experiment [2], the dissociation constant Kd stood at 8 nM and the stoichiometry N (phalloidin per actin monomer) is 0.6.
